In patent US20250368754A1 (KANAPH THERAPEUTICS, published 2025):

B1: T3.06 (anti-hu FAP/hu scLIGHT3(195-198), hu IgG1 DANG) (bispecific antibody)
heavy: QVQLVQSGAEVKKPGASVKVSCKTSRYTFTEYTIHWVRQAPGQRLEWIGGINPNNGIPNYNQKFKGRVTITVDTSASTAYMELSSLRSEDTAVYYCARRRIAYGYDEGHAMDYWGQGTLVTVSSASTKGPSVFPLAPSSKSTSGGTAALGCLVKDYFPEPVTVSWNSGALTSGVHTFPAVLQSSGLYSLSSVVTVPSSSLGTQTYICNVNHKPSNTKVDKKVEPKSCDKTHTCPPCPAPELLGGPSVFLFPPKPKDTLMISRTPEVTCVVVAVSHEDPEVKFNWYVDGVEVHNAKTKPREEQYGSTYRVVSVLTVLHQDWLNGKEYKCKVSNKALPAPIEKTISKAKGQPREPQVYTLPPSRDELTKNQVSLWCLVKGFYPSDIAVEWESNGQPENNYKTTPPVLDSDGSFFLYSKLTVDKSRWQQGNVFSCSVMHEALHNHYTQKSLSLSPGK
light: not shown
chain: not shown
notes: Knob-into-hole
B2: T3.16 (anti-hu FAP/hu scLIGHT(226-231)-LTb2, hu IgG1 DANG) (bispecific antibody)
heavy: B1 heavy
light: not shown
chain: not shown
notes: Knob-into-hole
B3: T3.17 (anti-hu FAP/hu scLIGHT(195-198)-LTb2, hu IgG1 DANG) (bispecific antibody)
heavy: B1 heavy
light: not shown
chain: not shown
notes: Knob-into-hole
B4: T3.15 (anti-hu FAP/hu scLIGHT-LIGHT(L118K, G119E)2, hu IgG1 DANG) (bispecific antibody)
heavy: B1 heavy
light: not shown
chain: not shown
B5: T3.05 (anti-hu FAP/hu scLIGHT3(226-231), hu IgG1 DANG) (bispecific antibody)
heavy: B1 heavy
light: not shown
chain: not shown
notes: Knob-into-hole

Legend:
[1] = molecular target: T1, human FAP on HEK293-hFAP cells (human, UniProt Q12884 1-760); experiment: flow cytometry on HEK293-hFAP cells, 1 ug protein per 1x10^5 cells, anti-human IgG detection (axis TMEkine-PE)
T1 construct: whole, on cells; also called human FAP-expressing cell line
T1 sequence (looked up): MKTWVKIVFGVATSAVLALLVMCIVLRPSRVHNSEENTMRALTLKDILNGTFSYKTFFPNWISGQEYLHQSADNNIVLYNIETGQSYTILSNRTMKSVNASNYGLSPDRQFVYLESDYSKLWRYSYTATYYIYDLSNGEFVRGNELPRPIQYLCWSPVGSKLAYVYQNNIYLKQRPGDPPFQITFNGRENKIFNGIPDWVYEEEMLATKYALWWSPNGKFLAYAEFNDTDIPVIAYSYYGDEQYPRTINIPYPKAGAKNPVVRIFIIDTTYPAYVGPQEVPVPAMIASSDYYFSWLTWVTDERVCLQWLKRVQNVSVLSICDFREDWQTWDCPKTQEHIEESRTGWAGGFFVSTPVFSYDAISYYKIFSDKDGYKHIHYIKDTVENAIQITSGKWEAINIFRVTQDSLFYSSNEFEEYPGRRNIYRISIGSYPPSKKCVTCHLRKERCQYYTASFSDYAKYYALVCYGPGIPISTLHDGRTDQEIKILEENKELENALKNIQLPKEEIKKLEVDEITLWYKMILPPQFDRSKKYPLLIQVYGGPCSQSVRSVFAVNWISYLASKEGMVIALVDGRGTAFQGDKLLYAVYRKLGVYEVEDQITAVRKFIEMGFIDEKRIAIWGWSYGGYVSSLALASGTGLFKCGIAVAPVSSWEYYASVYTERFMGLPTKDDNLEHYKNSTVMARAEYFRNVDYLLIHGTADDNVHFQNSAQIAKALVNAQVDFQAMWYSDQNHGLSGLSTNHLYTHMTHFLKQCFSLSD
Protocol: (§1) Specifically, the cell line was prepared by suspending in a FACS buffer solution at 1×10⁵ cells/100 μL, and treated with 1 μg each of T3.10, T3.01, T3.05, T3.06, T3.14, and T3.18. The cells were washed twice with a FACS buffer solution. The cells were stained with an anti-human IgG antibody (Biolegend). The negative control sample was stained only with an anti-human IgG antibody (Biolegend). The expression ratio of the stained cells was measured using BD LSR and analyzed using FlowJo software.

[2] = molecular target: T1, human FAP on HEK293-hFAP cells; experiment: flow cytometry on HEK293-hFAP cells, 1 µg protein, anti-human IgG detection
Protocol: as §1

[3] = molecular target: T2, recombinant human herpes virus entry mediator (HVEM) (human, UniProt Q92956 39-202); experiment: sandwich ELISA: plate coated with recombinant human HVEM 1 ug/mL, fusion protein from 1 nM in serial dilution, detected with biotinylated recombinant human FAP and streptavidin conjugate, OD 450 nm
T2 construct: neither construct is described; also called human HVEM; recombinant human HVEM protein (R&D systems)
T2 sequence (looked up): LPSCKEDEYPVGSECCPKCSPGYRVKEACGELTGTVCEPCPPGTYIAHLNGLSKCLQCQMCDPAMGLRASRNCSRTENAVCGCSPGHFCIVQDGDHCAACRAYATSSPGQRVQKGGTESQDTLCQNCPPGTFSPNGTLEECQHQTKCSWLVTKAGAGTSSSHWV
Protocol: Considering that LIGHT of the fusion protein must bind to the herpes virus entry mediator (HVEM) for the action, it was confirmed that T3.01 binds to the recombinant human HVEM, as follows: [0370] (i) The recombinant human HVEM protein (R&D systems) was suspended at 1 μg/mL, dispensed in a 96-well immune plate, and treated for 24 hours. [0371] (ii) The wells were washed with a wash solution, and then blocking was performed for 1 hour with 1% BSA (bovine serum albumin, Sigma) solution. [0372] (iii) The wells were washed with a wash solution, and then T3.01, T3.14, T3.16, T3.17, T3.18 and T3.10, or T3.05, T3.06, T3.04, T3.14 and T3.10 were suspended at 1 nM and diluted by serial dilution. The wells were treated with the diluted T3.01, T3.14, T3.16, T3.17, T3.18 and T3.10, or T3.05, T3.06, T3.04, T3.14 and T3.10 for 2 hours. [0373] (iv) The wells were washed with a wash solution, and then treated with the human recombinant FAP-biotin diluted at 0.5 μg/mL for 2 hours. [0374] (v) The wells were washed with a wash solution, and then treated with streptavidin-RP for 20 minutes. [0375] (vi) The wells were washed with a wash solution, and then treated with a substrate solution for 20 minutes. [0376] (vii) The wells were treated with a stop solution, and the absorbance was measured at 450 nm.

[4] = molecular target: human LTβR on A375 cells (human, UniProt P36941 31-435); experiment: cell-based or functional assay
Chain of human LTβR on A375 cells (P36941 31-435): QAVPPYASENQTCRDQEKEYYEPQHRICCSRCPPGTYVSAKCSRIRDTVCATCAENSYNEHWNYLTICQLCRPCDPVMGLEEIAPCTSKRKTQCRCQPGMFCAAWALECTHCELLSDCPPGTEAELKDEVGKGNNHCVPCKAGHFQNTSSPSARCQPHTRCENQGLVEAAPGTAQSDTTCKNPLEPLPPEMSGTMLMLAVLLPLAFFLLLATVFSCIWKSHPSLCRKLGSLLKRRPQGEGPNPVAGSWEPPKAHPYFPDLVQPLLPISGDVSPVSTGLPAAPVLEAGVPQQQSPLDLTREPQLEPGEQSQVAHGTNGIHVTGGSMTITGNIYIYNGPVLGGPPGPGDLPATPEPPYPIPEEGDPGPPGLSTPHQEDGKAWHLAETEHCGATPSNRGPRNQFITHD

Row | Binder | percent of cells in the positive gate [1] | percent of cells bound [2] | binding result [3] | IL-8 secretion of A375 cells, EC50 (FIG. 15a) [4]
1 | B1 | 100% | ≥ 99% | – | –
2 | B2 | – | – | no binding (tested: 1000 pM) | –
3 | B3 | – | – | no binding (tested: 1000 pM) | –
4 | B4 | – | – | – | 3.79 nM
5 | B5 | 99.8% | ≥ 99% | no binding (tested: 1000 pM) | –
